Experimental data as given in doi:10.1101/2020.04.15.042515 (bioRxiv, 2020).

T1: Smith-Magenis syndrome chromosome region, candidate 8 (SMCR8), wild type (human, UniProt Q8TEV9 1-937)
T1 sequence: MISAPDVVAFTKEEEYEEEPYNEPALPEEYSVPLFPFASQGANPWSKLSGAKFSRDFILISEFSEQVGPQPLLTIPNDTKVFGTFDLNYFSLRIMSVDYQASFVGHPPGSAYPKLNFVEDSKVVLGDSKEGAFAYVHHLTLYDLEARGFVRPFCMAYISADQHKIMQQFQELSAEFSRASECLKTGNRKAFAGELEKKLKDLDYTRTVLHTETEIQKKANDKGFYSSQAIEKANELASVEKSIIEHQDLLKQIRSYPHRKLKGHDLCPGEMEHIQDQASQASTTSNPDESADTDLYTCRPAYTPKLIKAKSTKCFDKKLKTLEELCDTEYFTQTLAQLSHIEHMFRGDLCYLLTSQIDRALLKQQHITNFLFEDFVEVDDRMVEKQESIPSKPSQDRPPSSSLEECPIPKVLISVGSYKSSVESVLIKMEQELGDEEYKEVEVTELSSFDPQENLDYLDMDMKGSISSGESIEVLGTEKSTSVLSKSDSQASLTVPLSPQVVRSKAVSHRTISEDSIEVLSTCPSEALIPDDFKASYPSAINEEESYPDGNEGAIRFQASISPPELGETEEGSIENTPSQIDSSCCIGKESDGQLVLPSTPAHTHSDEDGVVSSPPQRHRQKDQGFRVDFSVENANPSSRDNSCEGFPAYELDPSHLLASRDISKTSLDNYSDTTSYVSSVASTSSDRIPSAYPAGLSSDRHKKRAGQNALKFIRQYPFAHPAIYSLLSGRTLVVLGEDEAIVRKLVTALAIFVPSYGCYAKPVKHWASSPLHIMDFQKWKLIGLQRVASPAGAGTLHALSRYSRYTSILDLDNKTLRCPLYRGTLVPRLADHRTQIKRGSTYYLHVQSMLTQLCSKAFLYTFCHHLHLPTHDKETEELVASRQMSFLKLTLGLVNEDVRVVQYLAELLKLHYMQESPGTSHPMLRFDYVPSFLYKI


Biological target: T1, Smith-Magenis syndrome chromosome …
Assay: cryo-EM structure

Binder | binding result
C9orf72, wild type, GST tag removed by TEV (in purified SCARF and L-SCARF) (natural protein) MSTLCPPPSPAVAKTEIALSGKSPLLAATFAYWDNILGPRVRHIWAPKTEQVLLSDGEITFLANHTLNGEILRNAESGAIDVKFFVLSEKGVIIVSLIFDGNWNGDRSTYGLSIILPQTELSFYLPLHRVCVDRLTHIIRKGRIWMHKERQENVQKIILEGTERMEDQGQSIIPMLTGEVIPVMELLSSMKSHSVPEEIDIADTVLNDDDIGDSCHEGFLLNAISSHLQTCGCSVVVGSSAEKVNKIVRTLCLFLTPAERKCSRLCEAESSFKYESGLFVQGLLKDSTGSFVLPFRQVMYAPYPTTHIDVDVNTVKQMPPCHEHIYNQRRYMRSELTAFWRATSEEDMAQDTIIYTDESFTPDLNIFQDVLHRDTLVKAFLDQVFQLKPGLSLRSTFLAQFLLVLHRKALTLIKYIEDDTQKGKKPFKSLRNLKIDLDLTAEGDLNIIMALAEKIKPGLHSFIFGRPFYTSVQERDVLMTF | binds
WD repeat-containing protein 41 (WDR41), wild type, without a tag (natural protein) MLRWLIGGGREPQGLAEKSPLQTIGEEQTQNPYTELLVLKAHHDIVRFLVQLDDYRFASAGDDGIVVVWNAQTGEKLLELNGHTQKITAIITFPSLESCEEKNQLILTASADRTVIVWDGDTTRQVQRISCFQSTVKCLTVLQRLDVWLSGGNDLCVWNRKLDLLCKTSHLSDTGISALVEIPKNCVVAAVGKELIIFRLVAPTEGSLEWDILEVKRLLDHQDNILSLINVNDLSFVTGSHVGELIIWDALDWTMQAYERNFWDPSPQLDTQQEIKLCQKSNDISIHHFTCDEENVFAAVGRGLYVYSLQMKRVIACQKTAHDSNVLHVARLPNRQLISCSEDGSVRIWELREKQQLAAEPVPTGFFNMWGFGRVSKQASQPVKKQQENATSCSLELIGDLIGHSSSVEMFLYFEDHGLVTCSADHLIILWKNGERESGLRSLRLFQKLEENGDLYLAV | binds
